Experimental data published in the supplement of paper PMC11246515.
± gives the standard deviation of the averaged measurements.

Experiment: total protein half-life in vivo (active degradation + dilution); higher = more stable protein
[1] = wild type E. coli NCM3722, growth: C-lim chemostat, doubling time 3 h
[2] = wild type E. coli NCM3722, growth: C-lim chemostat, doubling time 6 h
[3] = wild type E. coli NCM3722, growth: C-lim chemostat, doubling time 12 h
[4] = E. coli NCM3722 delta-clpP, growth: N-lim chemostat, doubling time 6 h
[5] = E. coli NCM3722 delta-smpB, growth: N-lim chemostat, doubling time 6 h
[6] = wild type E. coli NCM3722, growth: P-lim chemostat, doubling time 6 h
[7] = wild type E. coli NCM3722, growth: P-lim chemostat, doubling time 12 h
[8] = wild type E. coli NCM3722, growth: N-lim chemostat, doubling time 12 h

| Sequence | total protein half-life in vivo [1] [h] | total protein half-life in vivo [2] [h] | total protein half-life in vivo [3] [h] | total protein half-life in vivo [4] [h] | total protein half-life in vivo [5] [h] | total protein half-life in vivo [6] [h] | total protein half-life in vivo [7] [h] | other results |
| --- | --- | --- | --- | --- | --- | --- | --- | --- |
| MRLSDYFPESSISVIHSAKDWQEAIDFSMVSLLDKNYISENYIQAIKDSTINNGPYYILAPGVAMPHARPECGALKTGMSLTLLEQGVYFPGNDEPIKLLIGLSAADADSHIGAIQALSELLCEEEILEQLLTASSEKQLADIISRG | 3.24 ± 0.38 | 4.03 | 8.65 | – | – | – | – | – |
| MRLSLPRLKMPRLPGFSILVWISTALKGWVMGSREKDTDSLIMYDRTLLWLTFGLAAIGFIMVTSASMPIGQRLTNDPFFFAKRDGVYLILAFILAIITLRLPMEFWQRYSATMLLGSIILLMIVLVVGSSVKGASRWIDLGLLRIQPAELTKLSLFCYIANYLVRKGDEVRNNLRGFLKPMGVILVLAVLLLAQPDLGTVVVLFVTTLAMLFLAGAKLWQFIAIIGMGISAVVLLILAEPYRIRRVTAFWNPWEDPFGSGYQLTQSLMAFGRGELWGQGLGNSVQKLEYLPEAHTDFIFAIIGEELGYVGVVLALLMVFFVAFRAMSIGRKALEIDHRFSGFLACSIGIWFSFQALVNVGAAAGMLPTKGLTLPLISYGGSSLLIMSTAIMMLLRIDYETRLEKAQAFVRGSR [P0ABG4] | 2.41 ± 0.21 | – | 3.2 | 2.97 ± 0.5 | 2.76 ± 0.73 | 2.93 | 5 | total protein half-life in vivo (E. coli NCM3722 delta-clpP delta-lon delta-hslV, growth: N-lim chemostat, doubling time 6 h): 4.49 h; total protein half-life in vivo (E. coli NCM3722 delta-hslV, growth: N-lim chemostat, doubling time 6 h): 3.01 h; total protein half-life in vivo (E. coli NCM3722 delta-lon, growth: N-lim chemostat, doubling time 6 h): 3.64 h |
| MRLTAKQVTWLKVCLHLAGLLPFLWLVWAINHGGLGADPVKDIQHFTGRTALKFLLATLLITPLARYAKQPLLIRTRRLLGLWCFAWATLHLTSYALLELGVNNLALLGKELITRPYLTLGIISWVILLALAFTSTQAMQRKLGKHWQQLHNFVYLVAILAPIHYLWSVKIISPQPLIYAGLAVLLLALRYKKLRSLFNRLRKQVHNKLSV | – | – | – | – | – | – | – | total protein half-life in vivo [8]: 8.91 h |
| MRLVQLSRHSIAFPSPEGALREPNGLLALGGDLSPARLLMAYQRGIFPWFSPGDPILWWSPDPRAVLWPESLHISRSMKRFHKRSPYRVTMNYAFGQVIEGCASDREEGTWITRGVVEAYHRLHELGHAHSIEVWREDELVGGMYGVAQGTLFCGESMFSRMENASKTALLVFCEEFIGHGGKLIDCQVLNDHTASLGACEIPRRDYLNYLNQMRLGRLPNNFWVPRCLFSPQE [P0A8P1] | 0.705 ± 0.05 | – | – | 4.09 ± 0.21 | – | – | – | – |
| MRMNVFEMEGFLRGKCVPRDLKVNETNAEYLVRKFDALEAKCAALENKIIPVSAELPPANESVLLFDANGEGWLIGWRSLWYTWGQKETGEWQWTFQVGDLENVNITHWAVMPKAPEAGA | 2.52 | – | – | – | 2.28 | 3.02 ± 0.68 | 5.84 | – |
| MRNHQLGIYEKALAKDLSWPERLVLAKSCGFDFVEMSVDETDERLSRLDWSAAQRTSLVAAMIETGVGIPSMCLSAHRRFPFGSRDEAVRERAREIMSKAIRLARDLGIRTIQLAGYDVYYEDHDEGTRQRFAEGLAWAVEQAAASQVMLAVEIMDTAFMNSISKWKKWDEMLASPWFTVYPDVGNLSAWGNDVPAELKLGIDRIAAIHLKDTQPVTGQSPGQFRDVPFGEGCVDFVGIFKTLHKLNYRGSFLIEMWTEKAKEPVLEIIQARRWIEARMQEAGFIC | 1.06 | 1.6 ± 0.19 | 2.24 | – | – | – | – | – |
| MRNKNIIMLLMSSLILSGCGPQPENKESQQQQPSTPTEQQVLAAQQAAIKEAEQSAAAAKALAQQEVQQYSDKQALQGRLQEAPTFARAAKAKATHIANPGTARYQQFDDNPVKQVAQNPLATFSLDVDTGSYANVRRFLNQGLLPPPDAVRVEEIVNYFPSDWDIKDKQSIPASKPIPFAMRYELAPAPWNEQRTLLKVDILAKDRKSEELPASNLVFLIDTSGSMISDERLPLIQSSLKLLVKELREQDNIAIVTYAGDSRIALPSISGSHKAEINAAIDSLDAEGSTNGGAGLELAYQQATKGFIKGGINRILLATDGDFNVGIDDPKSIESMVKKQRESGVTLSTFGVGNSNYNEAMMVRIADVGNGNYSYIDTLSEAQKVLNSEMRQMLITVAKDVKAQIEFNPAWVTEYRQIGYEKRQLRVEHFNNDNVDAGDIGAGKHITLLFELTLNGQKASIDKLRYAPDNKLAKSDKTKELAWLKIRWKYPQGKESQLVEFPLGPTINAPSEDMRFRAAVAAYGQKLRGSEYLNNTSWQQIKQWAQQAKGEDPQGYRAEFIRLIELADGVTDISQ | – | – | – | 4.02 ± 0.33 | 2.8393 ± 0.00061 | – | – | – |
| MRNKPFYLLCAFLWLAVSHALAADSTITIRGYVRDNGCSVAAESTNFTVDLMENAAKQFNNIGATTPVVPFRILLSPCGNAVSAVKVGFTGVADSHNANLLALENTVSAASGLGIQLLNEQQNQIPLNAPSSALSWTTLTPGKPNTLNFYARLMATQVPVTAGHINATATFTLEYQ | 2.61 | 5.55 | 15.7 | – | 5.58 ± 0.25 | 5.52 | 9.2 | total protein half-life in vivo (wild type E. coli NCM3722, growth: N-lim chemostat, doubling time 6 h): > 8 h; total protein half-life in vivo [8]: 13.4 h |
